According to paper PMC10730688:

Target: phosphonull human rod opsin 6A mutant (human) (UniProt P08100)

For “human visual arrestin (rod arrestin, arrestin-1), wildtype (from UniProt P10523 1-405) (natural protein)”, the Toff in the BRET G-protein activation assay, untethered co-expression of Rod6A and ArrWT (comparison for the Rod6A-ArrWT fusions) was 1240 s.
